According to publication doi:10.1101/2025.09.14.676084, “A validated antibody toolbox for ALS research” (bioRxiv, 2025):

Molecular target: T1, PFN1 (Homo sapiens (assumed; ALS risk gene …, UniProt P07737)
T1 construct: PFN1, the protein encoded by the ALS risk gene PFN1; Surmised: endogenous protein in the lysate of a human cell line, as in the YCharOS workflow; also called profilin-1 (protein encoded by the ALS risk gene PFN1)
Test: immunoprecipitation, detected by immunoblot; the antibody was used to immunoprecipitate its target; counted as successful when the target protein was specifically enriched relative to the starting material, confirmed by immunoblot of the immunoprecipitated protein
Conditions: one partner purified

T1 sequence (P07737 whole entry): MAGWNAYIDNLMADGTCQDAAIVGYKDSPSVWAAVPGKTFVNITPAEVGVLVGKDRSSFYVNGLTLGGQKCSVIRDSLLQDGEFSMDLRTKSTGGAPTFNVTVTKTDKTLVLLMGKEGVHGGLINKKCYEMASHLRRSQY

B1: scFv against PFN1 (recombinant single-chain variable fragment antibody generated by the Structural Genomics Consortium) (scFv, V domains shown)
VH: EVQLLESGGGLVQPGGSLRLSCAASGFTFYSSYMYWVRQAPGKGLEWVSSISGYGGYTYYADSVKGRFTISRDNSKNTLYLQMNSLRAEDTAVYYCARWDGYMDYWGQGTLVTVSS
VL: DIQMTQSPSSLSASVGDRVTITCRASQSISSYLNWYQQKPGKAPKLLIYAASSLQSGVPSRFSGSGSGTDFTLTISSLQPEDFATYYCQQYWDYGLPTFGQGTKLEIK
notes: selected by phage display against recombinant biotinylated antigen; plasmid deposited at Addgene (id not given); also called the scFv against PFN1; custom scFv antibody
  binding result: binds
